How the values were obtained:
CIA = CIA mice; cited from earlier work
[1] = cited from earlier work
SP-B = SP-B expression in H441 cells pretreated with FK866, without or with TNF-α (western blot); type: cell-based, human
Method: FIG. 21 illustrates NAMPT inhibited SP-B expression via both its nonenzymatic and enzymatic activity. (A) H441 cells were transfected with either pCAGGS, pCAGGS-hNAMPT or pCAGGS-H247E. Cell lysate of NAMPT (10 μg), SP-B (30 μg) and GAPDH (10 μg) proteins were detected by western blot. Protein bands were quantified by densitometry using image J, and NAMPT levels (B) and SP-B levels (C) were normalized to GAPDH levels. Values are means±SD of 3 independent experiments. *p<0.05 vs. pCAGGS cells; #p<0.05 vs pCAGGS-hNAMPT cells. (D) H441 cells were pretreated with different doses of FK866 for 6 h before treatment without or with TNF-α (25 ng/ml) for 24 hours. Cell lysate of NAMPT (10 μg), SP-B (30 μg) and GAPDH (10 μg) proteins were detected by western blot. Protein bands were quantified by densitometry using image J, and NAMPT levels (E) and SP-B levels (F) were normalized to GAPDH levels. Values are means±SD of 3 independent experiments. *p<0.05 vs cells without FK866 or rhTNF-α treatment. #p<0.05 vs cells pretreated with FK866 but without rhTNF-α treatment;
This example determined that NAMPT inhibits SP-B expression mainly via its nonenzymatic activity and partly via its enzymatic activity. […]

macrophage cell lines = experiment: MTS proliferation assay in transfected macrophage cell lines (RAW 264.7); type: cell-based, mouse; conditions: data not shown
Source text: (§1) In one embodiment of the present disclosure, as best shown in FIG. 1A, the cDNA for each single-chain variable fragment (scFv) antibody was cloned, including a histidine tag on the 3′ end, into the pCAGGS expression vector. The VH and VL fragments for each scFv are separated by a (G4S)3 linker and encode proteins of 247 and 249 amino acids, respectively for NAMPT-scFv1 (antibody 1 or Ab1) and scFv2 (antibody 2 or Ab2) (FIG. 1B). To test the anti-NAMPT ability of each construct, MTS assays were performed in transfected 3T3-L1 (ATCC CL-173™) and RAW 264.7 (ATCC® TIB-71™) cells.
We expressed and purified recombinant mouse NAMPT protein and obtained two human against mouse NAMPT antibody gene clones, termed NAMPT-scFv1 (Ab1) and -scFv2 (Ab2), by screening a HuScL-2™ Phage Display Naïve Human scFv Library (www.creative-biolabs.com/). We cloned the cDNAs for each scFv, including a histidine-tag on the 3′ end, into the pCAGGS expression vector. The VH and VL fragments for each scFv are separated by a (G4S)3 linker and encode proteins of 247 and 249 amino acids, respectively for NAMPT-scFv1 and -scFv2. To test the anti-NAMPT ability of each construct, we performed MTS assays in transfected 3T3-L1 (ATCC® CL-173™) and RAW 264.7 (ATCC® TIB-71™) cells. […] To increase the specificity of these constructs we generate a hetero-dimer and a hetero-tetramer using established procedures. […]

human a549 cell = experiment: Proliferation of human a549 cell (data not shown); type: cell-based
3T3-L1 cells = experiment: MTS / CellTiter 96 AQueous One cell proliferation assay in transfected 3T3-L1 cells; type: cell-based, mouse; conditions: for decreased proliferation as compared to the pCAGGS control population: fibroblasts, FIG. 1C; for proliferation of mouse 3T3: transfected cells, preliminary result
Method: FIG. 1C is a graphic representation of the results of assay of cell proliferation of 3T3-L1 cells transfected with scFV1 and scFv2 or pCAGGS control. After 72 h, cell proliferation was assayed by CellTiter 96® AQueous One Solution Cell Proliferation Assay (Promega, cat #G3582). Values are means±SD, N=12, * p≤0.001;
as §1
We expressed and purified recombinant mouse NAMPT protein and obtained two human against mouse NAMPT antibody gene clones, termed NAMPT-scFv1 (Ab1) and -scFv2 (Ab2), by screening a HuScL-2™ Phage Display Naïve Human scFv Library (www.creative-biolabs.com/). We cloned the cDNAs for each scFv, including a histidine-tag on the 3′ end, into the pCAGGS expression vector. The VH and VL fragments for each scFv are separated by a (G4S)3 linker and encode proteins of 247 and 249 amino acids, respectively for NAMPT-scFv1 and -scFv2. To test the anti-NAMPT ability of each construct, we performed MTS assays in transfected 3T3-L1 (ATCC® CL-173™) and RAW 264.7 (ATCC® TIB-71™) cells. […] To increase the specificity of these constructs we generate a hetero-dimer and a hetero-tetramer using established procedures. The hetero-dimer [scFv1-scFv2], also called a di-body, is separated by a GGSSRSSSSGGGGSGGGG linker. The hetero-tetramer, also called a tetra-body, consists of two dimers [scFv1-scFv2]2 joined by the HIV1 P21 capsid protein linker, GATPQDLNTML. The P21 linker is an epitope for the murine monoclonal CB4-1 antibody. […] Thus, we utilize the CB4-1 antibody and nickel-columns (His-Tag) to manipulate and purify our recombinant scFv antibodies. We enhance the specificity and tertiary structures of the di-body and tetra-body by modifying the type and length of the linker sequences. Their antisense clone of NAMPT-scFv1 and -scFv2 is used as controls. Since similar effects in in vitro assay were observed, only NAMPT-scFv1 and its antisense clone are used to prepare the constructs under the control of either the human MRP8 promoter or mouse MPO promoter for tissue specific expression in neutrophils or neutrophils and monocytes, respectively.

[2] = Cell culture experiments: cell death; type: cell-based
Source text: as §1

cell NAD synthesis = experiment: NAD synthesis by transfected 3T3-L1 cells (Amplite Fluorimetric NAD/NADH Ratio Assay Kit); type: cell-based, mouse
Method: FIG. 1D is a graphic representation of the results of assay of NAD synthesis by 3T3-L1 cells transfected with scFv1 or pCAGGS control. After 72 h NAD synthesis was measured by Amplite™ Fluorimetric NAD/NADH Ratio Assay Kit (AAT Bioquest®, Inc. prod. number 15263). Values are means±SD, N=4, p≤0.005. Ab1, antibody 1; Ab2, antibody 2;
as §1

| Molecule | severity and progression of arthritis (CIA) | side effect in humans [1] | rescue of TNF-α induced inhibition of SP-B (SP-B; FK866 6 h then TNF-α 25 ng/ml 24 hours) | SP-B expression (SP-B; FK866 pretreatment 6 h) | proliferation of macrophage cell lines (macrophage cell lines) | proliferation of human a549 cell (human a549 cell) | decreased proliferation as compared to the pCAGGS control population (3T3-L1 cells) | proliferation of mouse 3T3 (3T3-L1 cells) | cell death [2] | NAD synthesis, FIG. 1D values (Avg±SD) (cell NAD synthesis; 3T3-L1 cells transfected, after 72 h, pCAGGS control, N=4) | cell NAD synthesis (cell NAD synthesis; transfected cells) | cell proliferation, FIG. 1C values (Avg±SD) (3T3-L1 cells; 3T3-L1 cells transfected, after 72 h, pCAGGS control, N=12) |
| --- | --- | --- | --- | --- | --- | --- | --- | --- | --- | --- | --- | --- |
| O=C(/C=C/c1cccnc1)NCCCCC1CCN(C(=O)c2ccccc2)CC1 [FK866] | effectively reduce | thrombocytopenia | did not significantly rescue | increased | – | – | – | – | – | – | – | – |
| Ab1: anti-NAMPT single-chain variable fragment antibody clone, 247 amino acids, SEQ ID NO 1/2, in pCAGGS expression vector (protein, listed as Homo sapiens, (32)..(36) CDR1; (51)..(70) CDR2 scFv1; (99)..(105) CDR3 scFv1; (157)..(167) CDR4; (183)..(189) CDR5 scFv1; (224)..(230) CDR6 scFv1; (242)..(247) Histidine Tag) scFv: MEVQLLESGGGLVQPGGSLRLSCAASGFTFSSYAMSWVRQAPGKGLEWVSVINVPGNRTSYADSVKGRFTISRDNSKNTLYLQMNSLRAEDTAVYYCAKKTRRFDYWGQGTLVTVSSGGGGSGGGGSGGGGSTDIQMTQSPSSLSASVGDRVTITCRASQSISSYLNWYQQKPGKAPKLLIYGASVLQSGVPSRFSGSGSGTDFTLTISSLQPEDFATYYCQQRVRSPATFGQGTKVEIKRHHHHHH | – | – | – | – | inhibit proliferation | inhibited proliferation | about 50% | inhibit proliferation | induce cell death | 68.3%+10.4 | inhibited cell NAD synthesis | – |
| Ab2: anti-NAMPT single-chain variable fragment antibody clone, 249 amino acids, SEQ ID NO 3/4, in pCAGGS expression vector (protein, listed as Homo sapiens, (32)..(36) CDR1; (41)..(60) CDR2 scFv2; (90)..(96) CDR3 scFv3; (108)..(122) 15-mer linker sequence; (147)..(157) CDR4; (173)..(180) CDR5 scFv2; (214)..(220) CDR6 scFv2; (234)..(239) Histidine Tag) scFv: MEVQLLESGGGLVQPGGSLRLSCAASGFAFSSYAMSWVRQAPGKGLEWVSNISGRGAKTTYADSVKGRFTISRDNSKNTLYLQMNSLRAEDTAVYYCAKTYLVFDYWGQGTLVTVSSGGGGSGGGGSGGGGSTDIQMTQSPSSLSASVGDRVTITCRASQSISSYLNWYQQKPGKAPKLLIYRASSLQSGVPSRFSGSGSGTDFTLTISSLQPEDFATYYCQQISATPTTFGQGTKVEIKRAAHHHHHH | – | – | – | – | inhibit proliferation | inhibited proliferation | about 50% | inhibit proliferation | induce cell death | – | – | 49.8%+4.6 |

— patent publication US20190023809A1, “ANTI-NICOTINAMIDE PHOSPHORIBOSYLTRANSFERASE ANTIBODY GENES AND METHODS OF USE THEREOF” (The Children's Mercy Hospital, priority 2015, published 2019)
